Test results: article PMC8795526

Biological target: human neonatal Fc receptor (hFcRn) (human) (UniProt P55899)
Assay: SPR

- Kd: 538 nM
Substance: 3F6-hIgG1 (antibody)
